This assay has as its target staphylococcal superantigen-like protein 1 (Staphylococcus aureus, strain of the …, UniProt A0A0H3KAV3). In words: ELISA. To be noted: one partner purified. On the technique in general: An ELISA detects its analyte on a solid surface through an enzyme-linked reagent.

Here are results for 1 molecule from PMC10350561 (MicrobiologyOpen, 2023).

Chain of staphylococcal superantigen-like protein 1 (A0A0H3KAV3 31-226): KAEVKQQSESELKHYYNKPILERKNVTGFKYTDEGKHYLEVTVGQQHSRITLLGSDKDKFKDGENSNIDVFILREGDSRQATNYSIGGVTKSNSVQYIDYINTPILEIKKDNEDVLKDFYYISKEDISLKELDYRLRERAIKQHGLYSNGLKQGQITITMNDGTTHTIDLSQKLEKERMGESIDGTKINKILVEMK

B1: scFv-99 (scFv-ALP fusion) (scFv, V domains shown)
VH: EVQLLESGGGLVQPGGSLRLSCAASGFTFSNYSMHWVRQAPGKGLEWVSVIDYNSGYTDYADSVKGRFTISRDNSKNTLYLQMNSLRAEDTAVYYCARGIFDYWGQGTLVTVSS
VL: EIVLTQSPGTLSLSPGERATLSCRASQSVSSSALAWYQQKPGQAPRLLIYGASSRATGVPDRFSGSGSGTDFTLTISRLEPEDFAVYYCQQSSSTPWTFGQGTKVEIK
For the molecule B1, the binding result is “binds”.
